This data set deals with the molecule itself. Put plainly: X-ray crystal structure, 3.2 A, molecular replacement; one dimer per asymmetric unit. How it is done: One crystal was mounted in a capillary and preliminary X-ray analysis was carried out in-house using a rotating-anode radiation source (Cu Kα radiation, 50 kV, 150 mA) and MAR345 image plate detector. The crystal, however, diffracted to only 8 Å resolution and the space group could not be accurately determined. All further X-ray analysis, as well as data collection, was carried out using synchrotron radiation at the beamline X11 (EMBL/DESY Hamburg, Germany) equipped with a MAR Research CCD detector. For data collection, the crystals were cryo-protected with 20% (v/v) glycerol and flash-frozen in a 100 K nitrogen stream. Diffraction data, collected from three different crystals, were processed with the program XDS. The solvent content and Matthews coefficient were calculated assuming a molecular weight of 90 kDa per monomer and using the CCP4 suite.
The structure of VAP-1 was solved by molecular replacement using the program AMORE (Navaza, 1994) of the CCP4i program suite (Collaborative Computational Project, 1994). This method confirmed that the space group of VAP-1 crystals was P6522 with one biological unit, a dimer per asymmetric unit. […]
Electron density maps were calculated with FFT of CCP4i suite and were predictable enough to trace the VAP-1 polypeptide, even though, at the beginning of building, in several fragments. […]

B1: human vascular adhesion protein-1 (VAP-1) (enzyme)
chain: MNQKTILVLLILAVITIFALVCVLLVGRGGDGGEPSQLPHCPSVSPSAQPWTHPGQSQLFADLSREELTAVMRFLTQRLGPGLVDAAQARPSDNCVFSVELQLPPKAAALAHLDRGSPPPAREALAIVFFGRQPQPNVSELVVGPLPHPSYMRDVTVERHGGPLPYHRRPVLFQEYLDIDQMIFNRELPQASGLLHHCCFYKHRGRNLVTMTTAPRGLQSGDRATWFGLYYNISGAGFFLHHVGLELLVNHKALDPARWTIQKVFYQGRYYDSLAQLEAQFEAGLVNVVLIPDNGTGGSWSLKSPVPPGPAPPLQFYPQGPRFSVQGSRVASSLWTFSFGLGAFSGPRIFDVRFQGERLVYEISLQEALAIYGGNSPAAMTTRYVDGGFGMGKYTTPLTRGVDCPYLATYVDWHFLLESQAPKTIRDAFCVFEQNQGLPLRRHHSDLYSHYFGGLAETVLVVRSMSTLLNYDYVWDTVFHPSGAIEIRFYATGYISSAFLFGATGKYGNQVSEHTLGTVHTHSAHFKVDLDVAGLENWVWAEDMVFVPMAVPWSPEHQLQRLQVTRKLLEMEEQAAFLVGSATPRYLYLASNHSNKWGHPRGYRIQMLSFAGEPLPQNSSMARGFSWERYQLAVTQRKEEEPSSSSVFNQNDPWAPTVDFSDFINNETIAGKDLVAWVTAGFLHIPHAEDIPNTVTVGNGVGFFLRPYNFFDEDPSFYSADSIYFRGDQDAGACEVNPLACLPQAAACAPDLPAFSHGGFSHN
modifications: topaquinone (Tpq471) formed by post-translational modification of an intrinsic tyrosine at 471; N-glycan attached to Asn232; one copper ion per monomer in the active site
notes: Full-length protein was crystallized; Only residues A55-A761 and B57-B761 are modelled in the structure, with a few gaps; PDB entries are printed as IPU4 (probably 1PU4) and 1US1; also called hVAP-1; HVAP-1
As to B1, the binding result was “binds”.
